Molecular target: T1, purified human α5β1-integrin (Homo sapiens, UniProt P05556+P08648)
T1 construct: purchased Chemicon International (Temecula, Calif.)
Assay: Solid phase dot-ELISA: α5β1-integrin binding to immobilized uPAR peptides and suPAR
Settings: for α5β1-integrin binding to immobilized peptide: peptide immobilized on nitrocellulose, α5β1-integrin 750 ng/ml; for reduction of integrin binding to immobilized uPAR: α5β1-integrin pre-incubated 15 min with 100 fold molar excess of peptide, suPAR 1.5 μg
Experimental: FIGS. 1A-H show the interaction between α5β1-integrin and immobilized uPAR and uPAR-derived synthetic peptides through solid-phase dot-ELISA. […] Bound integrin was detected with anti-α5 integrin antibody followed by goat anti-rabbit IgG (H+L) HRP conjugated secondary antibody and developed with enhanced chemiluminescence (“ECL”). FIG. 1B is a graph showing that binding of integrin to suPAR is saturable. SuPAR (1.5 μg) was immobilized on nitrocellulose membrane in triplicates, incubated with 0, 0.1, 0.5, 1, 2, and 4 μg/ml of α5β1-integrin and tested for integrin binding as in FIG. 1A. The dots were scanned with NIH Image. Mean and SE are shown. […] Peptides representing regions located in each of the three uPAR-domains were immobilized, incubated with α5β1-integrin, and analyzed as in FIG. 1A. Only peptide 240-248 binds α5β1-integrin. FIG. 1D is a graph showing that peptide 240-248 inhibits integrin binding to suPAR. The α5β1-integrin (750 ng/ml) was pre-incubated for 15 min at room temperature with 100 fold molar excess of 240-248 or 17-24 peptides, or with no peptide (Control) and the mixtures were applied to immobilized suPAR (1.5 μg), 2 dots per mixture, and developed as in FIG. 1A. The dots were scanned with NIH Image. The results (bars) show % of control, the lines show range. FIG. 1E is a graph showing binding of α5β1- and α3β1-integrin to suPAR and peptide 240-248. Dot-ELISA was performed in duplicate as in FIG. 1A, except that purified α5β1-integrin and α3β1-integrin (750 ng/ml) were used. Bound integrins were detected with the appropriate previously titrated antibodies followed by goat anti-rabbit IgG (H+L) HRP conjugated secondary antibody and detection with ECL. The graph represents the mean and range of two values: α5β1-integrin binding to peptide 240-248 (▪) or SuPAR (▴); α3β1-integrin binding to peptide 240-248 ([…]) and SuPAR (x). […] Peptide 240-248 (domain III), 17-24 (domain I), and the S245A mutant of peptide 240-248 were immobilized and tested for integrin binding as in FIG. 1A. FIGS. 1G-H show the crystal structure of human uPAR shown as a surface representation. The three individual domains of uPAR in FIG. 1G are indicated as follows: D1 is on the right side, DII is on the top of the model, and Diii is on the left of the model. In FIG. 1H, the order of the domains is inversed. […] The location of the COOH-terminal in uPAR domain III harboring the GPI-anchor is indicated by the arrow (FIG. 1H). FIGS. 1G-H were created by the program PyMol (DeLano Scientific) using the coordinates 1YWH.
FIGS. 2A-B show solid phase dot-ELISA of suPAR. […] Binding was detected as in FIG. 1A and the dots were scanned with NIH Image. Mean of the two-scanned value for each suPAR concentration are shown in the bottom panel. Mutation of residues in the 239-249 sequence reduced the integrin binding by ˜50 to 94%. suPAR^E33A (▪), suPAR^wt (▴), suPAR^R239A (♦), suPAR^H249A (x), suPAR^Q248A (∘), suPAR^M246A ([…]), suPAR^S245A (□).
Synthetic uPAR-derived peptides and mutant proteins were diluted to 0.5, 1, and 2 μg/100 μl of PBS. […] The strips, pinned to the bottom of a plastic box, were washed with TBS with 0.1% Tween 20, overlaid with 500 μl of rabbit anti-integrin α5 polyclonal antibody (1:650) for 1 hr at RT, washed with TBST twice, incubated with goat anti-rabbit IgG (H+L) HRP conjugated secondary antibody (1:2000) for 1 hr, washed 3 times with TBST, and developed with ECL. The dots were scanned with NIH image.

T1 sequence (P08648 42-894 limits assumed): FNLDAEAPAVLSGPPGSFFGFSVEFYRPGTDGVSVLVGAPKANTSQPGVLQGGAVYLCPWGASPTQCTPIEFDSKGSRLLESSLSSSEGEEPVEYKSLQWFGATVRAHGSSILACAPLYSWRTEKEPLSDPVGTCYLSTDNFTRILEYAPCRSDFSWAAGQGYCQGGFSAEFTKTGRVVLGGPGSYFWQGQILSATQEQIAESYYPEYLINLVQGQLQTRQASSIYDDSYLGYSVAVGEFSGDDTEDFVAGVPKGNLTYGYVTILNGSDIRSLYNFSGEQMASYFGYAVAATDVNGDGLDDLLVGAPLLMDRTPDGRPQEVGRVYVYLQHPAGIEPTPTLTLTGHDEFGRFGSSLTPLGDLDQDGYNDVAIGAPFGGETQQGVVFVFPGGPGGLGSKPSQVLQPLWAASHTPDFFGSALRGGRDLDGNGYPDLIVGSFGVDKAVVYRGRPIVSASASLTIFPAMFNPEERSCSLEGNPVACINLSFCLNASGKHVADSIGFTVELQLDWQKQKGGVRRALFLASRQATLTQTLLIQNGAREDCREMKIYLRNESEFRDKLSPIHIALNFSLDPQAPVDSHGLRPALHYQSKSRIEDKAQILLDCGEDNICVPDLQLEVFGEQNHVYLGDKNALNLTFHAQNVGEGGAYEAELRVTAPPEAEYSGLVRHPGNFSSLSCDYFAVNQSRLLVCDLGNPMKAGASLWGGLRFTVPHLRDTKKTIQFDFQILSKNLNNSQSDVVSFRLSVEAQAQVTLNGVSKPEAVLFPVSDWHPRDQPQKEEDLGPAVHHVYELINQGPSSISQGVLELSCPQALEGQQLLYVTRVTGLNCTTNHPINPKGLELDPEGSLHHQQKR
T1 sequence (P08648 895-1049 limits assumed): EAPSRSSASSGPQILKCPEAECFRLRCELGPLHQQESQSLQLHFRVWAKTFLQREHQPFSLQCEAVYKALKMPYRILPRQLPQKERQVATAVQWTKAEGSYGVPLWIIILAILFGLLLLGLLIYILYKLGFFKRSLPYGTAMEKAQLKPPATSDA
T1 sequence (P05556 21-798): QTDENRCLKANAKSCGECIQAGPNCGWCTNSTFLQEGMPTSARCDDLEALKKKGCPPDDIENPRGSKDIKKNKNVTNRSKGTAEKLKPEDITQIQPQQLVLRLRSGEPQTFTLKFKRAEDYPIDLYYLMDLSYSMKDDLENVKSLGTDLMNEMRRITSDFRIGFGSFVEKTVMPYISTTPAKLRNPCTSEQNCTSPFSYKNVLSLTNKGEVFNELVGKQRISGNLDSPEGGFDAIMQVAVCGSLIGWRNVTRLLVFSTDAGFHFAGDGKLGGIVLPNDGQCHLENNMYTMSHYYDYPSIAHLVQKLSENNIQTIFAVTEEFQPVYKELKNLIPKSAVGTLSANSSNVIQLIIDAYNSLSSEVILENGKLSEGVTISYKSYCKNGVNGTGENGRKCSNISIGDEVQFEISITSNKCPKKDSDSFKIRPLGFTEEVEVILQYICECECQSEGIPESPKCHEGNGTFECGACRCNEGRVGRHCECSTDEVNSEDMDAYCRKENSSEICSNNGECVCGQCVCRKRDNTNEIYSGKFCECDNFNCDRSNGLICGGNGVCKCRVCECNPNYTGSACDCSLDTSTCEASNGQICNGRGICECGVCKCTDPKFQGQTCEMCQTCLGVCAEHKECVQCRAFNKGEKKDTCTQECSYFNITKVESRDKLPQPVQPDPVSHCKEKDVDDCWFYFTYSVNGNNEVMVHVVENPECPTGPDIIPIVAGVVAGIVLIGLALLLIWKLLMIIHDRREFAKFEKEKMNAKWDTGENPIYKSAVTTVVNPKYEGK

Substance	α5β1-integrin binding to immobilized peptide	reduction of integrin binding to immobilized uPAR
peptide 17-24: synthetic uPAR-derived peptide, domain I amino acid 17-24: CALGQDLC (SEQ ID NO:5); negative control [reference compound]	no binding	negligible effect
peptide 240-248: synthetic uPAR-derived peptide, domain III residues 240-248: GCATASMCQ (SEQ ID NO:9)	bound α5β1-integrin in a dose-dependent fashion	more than 70%
